Reference: the nanobody polyreactivity screen of Harvey et al. (2022)

Assay: yeast display, Sf9 membrane polyspecificity reagent, FACS + sequencing; frameworks hold sequencing errors
Summary of the method: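 Nanobodies came from a synthetic yeast display library in Saccharomyces cerevisiae BJ5465, induced with galactose for 36–48 hours and stained for 1 hour at 4 °C with 10% biotinylated, detergent-solubilized Sf9 membrane reagent. Cells were enriched on streptavidin microbeads and then FACS-sorted, with low and high (top ~1%) gates set on anti-HA fluorescence for expression and streptavidin fluorescence for reagent binding. Each polyreactivity label reflects the gate a clone came from. Genes were amplified by colony PCR, sequenced by MiSeq 2 × 250 and filtered by CDR length.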

| Sequence | polyreactivity (PSR sort gate) |
| --- | --- |
| QVQLVESGGGLVQAGGSLRLSCAASGSTFGWYAMGWYRQAPGKERELVATISTTGGRTYYADSVKGRFTISRDNAKNTVYLQMNSLKPEDTAVYYCAARAFYKRYFAFDYWGQGTQVTVSS | high polyreactivity |
| QVQLVESGGGLVQAGGSLRLSCAASGSTFGWYAMGWYRQAPGKETELDAAISWSGGSTYYADSVKGRFTISRDNAKNTVYLQMNSLKPEDTAVYYCARDTQYPYYFLMDYWGQGTQVTVSS | low polyreactivity |
| QVQLVESGGGLVQAGGSLRLSCAASGSTFGWYTMAWYRQAPGKERELVAAITSRGTRTSYADSVKGRFTISRDNAKNTVYLQMNSLKPEETAVYYCAARVFRGLGEYYWGQGTQVTVSS | high polyreactivity |
| QVQLVESGGGLVQAGGSLRLSCAASGSTFGWYTMGWYRQAPGKERELVAAINYSGGSTYYADSVKGRFTISRDNAKNTVYLQMISLKPEDTAVYYCAADGTWSIYGGLYYWGQGTQVTVSS | low polyreactivity |
| QVQLVESGGGLVQAGGSLRLSCAASGSTFGYNAMGWSRPAPGKERELVAAITWSGGSTYYADSVKGRFTISRDNAKNTVYLQMNSLKPEDTAVYYCAADDWYNSKWHYYYWGQGTQVTVSS | low polyreactivity |
| QVQLVESGGGLVQAGGSLRLSCAASGSTFGYNAMGWYRQAPGKERELVAAIRRSGGSTYYADSVKGRFTISRDNAKNTVYLQMNSLKPEDTAVYYCAAAGGKRHEYWGQGTQVTVSS | high polyreactivity |
| QVQLVESGGGLVQAGGSLRLSCAASGSTFGYNAMGWYRQAPGKERELVAAISYSGGSTSYADSVKGRFTISRDNAKNTVYLQMNSLKPEDTAVYYCAADEGTGQASLSSNLYDYWGQGTQVTVSS | low polyreactivity |
| QVQLVESGGGLVQAGGSLRLSCAASGSTFGYNAMGWYRQAPGKERELVAAITWSGGSTYYADSVKGRFTISRDNAKNTVYLQMNSLKPEDTAVYYCAADDWYNSTWHYYYWGQGTQVTVSS | low polyreactivity |
| QVQLVESGGGLVQAGGSLRLSCAASGSTFGYNAMGWYRQAPGKERELVAAITWTGASTYYADSVKGRFTISRDIAKNTVYLQMNSLKPEDTAVYYCNRVGYQSMNYWGQGTQVTVSS | low polyreactivity |
| QVQLVESGGGLVQAGGSLRLSCAASGSTFGYNGLGWYRQAPGKERELVAAISGGARTYADSVKGRFTISRDNAKNTVYLQMNSLKPEDTSVYYCAADSPVSVTADDGYWGQGTQVTVSS | low polyreactivity |
| QVQLVESGGGLVQAGGSLRLSCAASGSTFGYNGMGWYRQAPGKERELVAAISGGARTYADSVKGRFTISRDNAKNTVYLQMNSLKPEDTAVYYCAADSPVSVTADDGYWGQGTEVTVSS | low polyreactivity |
| QVQLVESGGGLVQAGGSLRLSCAASGSTFGYNGMGWYRQGPGKERELVAAISGGARTYADSVKGRFTISRDNAKNTVYLQMNSLKPEDTAVYYCAADSPVSVTADDGYWGQGTQLTVSS | low polyreactivity |
| QVQLVESGGGLVQAGGSLRLSCAASGSTFGYYAMGWYIQAPGKERELVAAISWPGGSTYYADSVKGRFTISRDNAKNTVYLQMNSLKPEYTAVYYCAADTPYWQSSKYDYWGQGTQVSVSS | high polyreactivity |
| QVQLVESGGGLVQAGGSLRLSCAASGSTFGYYAMGWYRQAPGKERELVAAIRWSGSTYYADSVKGRFTISRDNAKNTVYLQMNSLKPEDTAVYYCAADFVKRQANRQFDYWGQGTQVTVSS | high polyreactivity |
| QVQLVESGGGLVQAGGSLRLSCAASGSTFGYYAMGWYRQAPGKERELVAAISLGGGSTYYADSVKGRFTISRDNAKNTVYLQMNSLKPEDTEVYYCAARPYVRVKWKFNYWGQGTQVTVSS | low polyreactivity |
| QVQLVESGGGLVQAGGSLRLSCAASGSTFGYYAMGWYRQAPGKERELVAAISRGDSTNYADSVKGRFTISRDNAKNTVYLQMNSLKPEDTAVYYCAADQLNVCREYVEYDYWGQGTQVTVAS | low polyreactivity |

| Sequence | polyreactivity (PSR sort gate) |
| --- | --- |
| QVQLVESGGGLVQAGGSLRLSCAASGSTFGYYAMGWYRQAPGKERELVAAISSGGSTNYADSVKGRFTISRDNAKNTVYLQMNSLKPEDTAVYYCNVGYIFVSFRYDYWGQGTQVTVSS | low polyreactivity |
| QVQLVESGGGLVQAGGSLRLSCAASGSTFGYYAMGWYRQAPGKERELVAAITWSGGSTSYADSVKGRFTISRENAKNSVYLQMNSLKPEDTAVYYCAAQYKKGRGAKRTYYGGWLEYCGQGTQVTVSS | low polyreactivity |
| QVQLVESGGGLVQAGGSLRLSCAASGSTFGYYAMGWYRQAPGKERELVAVIRRGGSTNYADSVKGRFTISRENAKNTVYLQMHSLKPEDTAVYYCAKSQRGTVYSYYYWGQGSQVTVSS | high polyreactivity |
| QVQLVESGGGLVQAGGSLRLSCAASGSTFGYYAMGWYRQAPRKERELVAVITRGGSTYYADSVKGRFTISRDNAKNTVYVQMNSLKPEDTAVYYCNARVQAVHYGYWGQGTEVTVSS | high polyreactivity |
| QVQLVESGGGLVQAGGSLRLSCAASGSTFGYYAMGWYRQAPVKERELVAAISAGDRTYYADSVKGRFTISRDNATNTLYLQMNSLKPEDTAVYYSAARPLRSRNGYYWGQGTQGTVSS | high polyreactivity |
| QVQLVESGGGLVQAGGSLRLSCAASGSTFGYYGMGRYRQAPGKERELVASIDSRGDSTYADSVKGRFTISRDNAKNTVYLQMNSLKPEDTSVYYCADDSWYTWFDSWGQGTQVTVSS | low polyreactivity |
| QVQLVESGGGLVQAGGSLRLSCAASGSTFGYYSMGWYRQAPGKERELVAAIRYSGGTTYYADSVKGRYTISRDNAKNTVYLQMNSLKPEDTAVYYCAAVYTSGYYYWGQGTQVTVSS | high polyreactivity |
| QVQLVESGGGLVQAGGSLRLSCAASGSTFGYYTMGWYRQAPGKERELVAAITWLGGRTYYADSVKGRFTISRDNAKNTVYLQMNSLKPEDTAVYYCAARSTVLMDYWGQGTQVTVSS | high polyreactivity |
| QVQLVESGGGLVQAGGSLRLSCAASGSTFGYYTMGWYRQAPGKERELVASIDVSGDSTSYADSVKGRLTISRDNAKNTVYLQMNSLKPEDTAVYYCNTGRYPTSPTHNYWGQGTQVTVSS | low polyreactivity |
| QVQLVESGGGLVQAGGSLRLSCAASGSTFHFYAMGWYRQAPGKESELVAAITWSGGTTYYADSVKGRFTISRDNAKNTVYFQMNSLKPEDTGVYYCATGQSVIYRYEYWGQGTQVTVSS | low polyreactivity |
| QVQLVESGGGLVQAGGSLRLSCAASGSTFHGNAMGWYRQAPGKERELVAAISRSGGSTYYADSVKGRFTISRDNEKNTVYLQMNSLKPEDNAVYYCAADRPYYPLKYDYWGQGTQVTVSS | high polyreactivity |
| QVQLVESGGGLVQAGGSLRLSCAASGSTFHGYDMGWYRQAPGKERELVAAITSSGDDTYYADSVKGRFTISRDNAKNTVYLQMNSLKPEDTAVYYCAAEYTEGYTHDYWGQGTQVNVSS | low polyreactivity |
| QVQLVESGGGLVQAGGSLRLSCAASGSTFHIYAMGWYRQAPGKERELVAGITRGSTYYADSVKGRFTISRDNAKNTVYLQMNSLKPEDTAVYYCAADVYGFRYSESDYWGQGTQVTVSS | low polyreactivity |
| QVQLVESGGGLVQAGGSLRLSCAASGSTFHPNAMGWYRQAPGKERELVAISSGDDTYYADSVKGRFTISRDIAKNTVYLQMKSLKPEDTAVYYCAAEYSFIYYWGQGTQVTVSS | low polyreactivity |
| QVQLVESGGGLVQAGGSLRLSCAASGSTFHPNGMGWYRQAPGKERELVAAIRRSGGSTYYADSVKGRFTISRDNAKNTVYLQMNSLKPEDTAVYYCAAKHYYYSPYVRYDPPPGYYWGQGTQVTVSS | high polyreactivity |
| QVQLVESGGGLVQAGGSLRLSCAASGSTFHQNTMGWYRQAPVKEREMVAAISWTGGGTYYADSVKGRYTISRDNAKNTVYLQMNSLKPEDTAVYYCAADYSDFWGFRYYYWGQGTQVNVSS | low polyreactivity |
